Laboratory results: patent US20260250421A1 (BIOCYTOGEN PHARMACEUTICALS BEIJING, published 2026)

T1: His-tagged monkey TROP2 protein (cynomolgus monkey; Rhesus …, UniProt A0A5F8AGB8 27-274)
T1 construct: also called cTROP2-His; ACRO Biosystems Cat# TR2-R52H3
T1 sequence: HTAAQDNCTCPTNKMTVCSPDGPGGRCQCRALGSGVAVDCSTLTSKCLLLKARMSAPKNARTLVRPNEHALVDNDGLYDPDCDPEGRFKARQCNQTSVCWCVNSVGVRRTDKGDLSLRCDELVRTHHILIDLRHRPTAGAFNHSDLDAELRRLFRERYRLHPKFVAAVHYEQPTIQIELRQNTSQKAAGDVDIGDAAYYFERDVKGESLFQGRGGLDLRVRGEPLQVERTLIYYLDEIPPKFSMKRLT

T2: His-tagged human PTK7 protein (human, UniProt Q13308 31-704)
T2 construct: Bought protein; also called hPTK7-His; not shown: His tag
T2 sequence: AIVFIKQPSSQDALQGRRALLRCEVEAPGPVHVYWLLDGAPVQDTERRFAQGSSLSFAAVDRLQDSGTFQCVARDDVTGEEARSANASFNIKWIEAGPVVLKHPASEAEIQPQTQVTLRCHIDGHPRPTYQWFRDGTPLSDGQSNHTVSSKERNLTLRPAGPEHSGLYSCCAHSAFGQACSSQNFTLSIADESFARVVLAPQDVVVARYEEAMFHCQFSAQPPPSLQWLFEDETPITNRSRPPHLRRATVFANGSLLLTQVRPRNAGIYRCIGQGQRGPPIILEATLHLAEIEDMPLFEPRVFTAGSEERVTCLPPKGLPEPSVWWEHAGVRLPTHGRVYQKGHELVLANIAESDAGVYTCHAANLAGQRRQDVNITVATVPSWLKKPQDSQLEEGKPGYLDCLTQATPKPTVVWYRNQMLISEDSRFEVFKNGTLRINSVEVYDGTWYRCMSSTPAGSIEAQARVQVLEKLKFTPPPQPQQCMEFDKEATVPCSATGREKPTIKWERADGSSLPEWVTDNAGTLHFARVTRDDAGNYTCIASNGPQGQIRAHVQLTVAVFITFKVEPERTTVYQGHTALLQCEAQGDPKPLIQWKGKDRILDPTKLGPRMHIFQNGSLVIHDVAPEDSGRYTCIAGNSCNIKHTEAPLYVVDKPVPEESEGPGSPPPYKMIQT

T3: His-tagged cynomolgus monkey PTK7 protein (cynomolgus monkey, UniProt A0A2K5VNI5 39-712)
T3 construct: Bought protein; also called cPTK7-His; ACRO Biosystems Cat# PT7-C52H3; not shown: His tag
T3 sequence: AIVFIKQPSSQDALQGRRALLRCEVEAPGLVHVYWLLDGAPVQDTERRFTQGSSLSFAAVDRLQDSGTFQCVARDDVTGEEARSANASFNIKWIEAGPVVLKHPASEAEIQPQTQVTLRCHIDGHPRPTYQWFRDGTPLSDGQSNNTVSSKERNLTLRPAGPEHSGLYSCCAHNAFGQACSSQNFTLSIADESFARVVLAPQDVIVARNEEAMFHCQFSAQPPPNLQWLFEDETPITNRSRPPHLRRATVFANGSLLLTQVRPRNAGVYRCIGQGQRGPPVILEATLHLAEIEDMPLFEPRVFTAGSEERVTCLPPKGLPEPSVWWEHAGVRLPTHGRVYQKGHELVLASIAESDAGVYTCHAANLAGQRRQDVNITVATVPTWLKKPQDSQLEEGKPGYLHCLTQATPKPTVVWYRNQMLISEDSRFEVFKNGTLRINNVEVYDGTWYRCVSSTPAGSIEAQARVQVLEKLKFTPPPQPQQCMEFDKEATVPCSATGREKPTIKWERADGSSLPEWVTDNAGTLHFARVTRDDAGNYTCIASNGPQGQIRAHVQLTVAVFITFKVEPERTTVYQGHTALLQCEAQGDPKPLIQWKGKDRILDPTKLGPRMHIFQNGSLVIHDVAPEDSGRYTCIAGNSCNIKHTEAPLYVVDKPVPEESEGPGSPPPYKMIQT

T4: His-tagged human TROP2 protein (human, UniProt P09758 27-274)
T4 construct: Bought protein; also called hTROP2-His; ACRO Biosystems Cat# TR2-H5223; not shown: His tag
T4 sequence (looked up): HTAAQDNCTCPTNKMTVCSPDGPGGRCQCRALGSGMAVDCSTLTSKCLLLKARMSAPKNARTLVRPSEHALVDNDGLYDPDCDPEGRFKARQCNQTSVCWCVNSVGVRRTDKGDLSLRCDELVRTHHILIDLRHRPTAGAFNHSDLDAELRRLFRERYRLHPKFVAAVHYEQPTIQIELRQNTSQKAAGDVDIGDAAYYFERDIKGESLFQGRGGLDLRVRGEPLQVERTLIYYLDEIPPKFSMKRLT

T5: His-tagged dog PTK7 protein (dog, UniProt Q13308 31-703 (human entry))
T5 construct: also called dPTK7-His
T5 chain: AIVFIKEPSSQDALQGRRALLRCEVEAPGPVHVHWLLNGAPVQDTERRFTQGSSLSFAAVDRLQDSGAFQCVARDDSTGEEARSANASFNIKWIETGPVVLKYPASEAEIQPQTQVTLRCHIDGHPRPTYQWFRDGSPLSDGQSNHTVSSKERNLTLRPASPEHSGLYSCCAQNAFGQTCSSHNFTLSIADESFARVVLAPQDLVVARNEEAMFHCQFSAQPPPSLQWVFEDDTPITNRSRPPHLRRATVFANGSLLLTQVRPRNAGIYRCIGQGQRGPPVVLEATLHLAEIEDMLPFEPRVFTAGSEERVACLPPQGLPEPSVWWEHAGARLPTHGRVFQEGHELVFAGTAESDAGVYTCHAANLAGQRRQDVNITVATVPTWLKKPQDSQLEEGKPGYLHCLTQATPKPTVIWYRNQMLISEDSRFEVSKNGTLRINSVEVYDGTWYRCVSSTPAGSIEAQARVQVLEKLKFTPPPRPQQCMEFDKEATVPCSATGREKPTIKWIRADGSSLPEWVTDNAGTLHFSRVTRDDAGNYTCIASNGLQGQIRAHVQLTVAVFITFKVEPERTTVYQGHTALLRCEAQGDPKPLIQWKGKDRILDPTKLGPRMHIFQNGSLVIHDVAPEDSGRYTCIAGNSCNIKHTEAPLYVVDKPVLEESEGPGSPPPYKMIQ


Tests used:
Experiment in all cases: SPR Biacore 8K, Ab on Protein A chip
[1] = target: T1, His-tagged monkey TROP2 protein
[2] = target: T2, His-tagged human PTK7 protein
Procedure: (§1) The affinity of the anti-PTK7/TROP2 bispecific antibodies to His-tagged human TROP2 protein (hTROP2-His, ACRO Biosystems Inc., Cat #: TR2-H5223), His-tagged […] monkey TROP2 protein (cTROP2-His, ACRO Biosystems Inc., Cat #: Cat: TR2-R52H3), His-tagged dog TROP2 protein (dTROP2-His, ACRO Biosystems Inc., Cat #: TR2-C52H4), hPTK7-His, cPTK7-His and dPTK7-His were measured by surface plasmon resonance (SPR) using Biacore™ (Biacore, INC, Piscataway N.J.) 8K biosensor equipped with pre-immobilized Protein A sensor chips.

[3] = target: T3, His-tagged cynomolgus monkey PTK7 …
Procedure: as §1

[4] = target: T4, His-tagged human TROP2 protein
Procedure: as §1

[5] = target: T5, His-tagged dog PTK7 protein
Procedure: as §1

| Binder | Kd [1] | koff [1] | kon [1] | Kd [2] | koff [2] | kon [2] | Kd [3] | koff [3] | kon [3] | Kd [4] | koff [4] | kon [4] | Kd [5] | koff [5] | kon [5] |
| --- | --- | --- | --- | --- | --- | --- | --- | --- | --- | --- | --- | --- | --- | --- | --- |
| 3C4-18F12 (bispecific antibody, V domains shown, also called anti-PTK7/TROP2 bispecific antibody 3C4-18F12) VH 1: QVQLEQSRAEVKKPGESLRISCKGSGYSFTSYWISWVRQMPGKGLEWMGRIDPSDSYTNYNPSFQGHVTISADKSISTAYLQWSSLKASDTAMYYCARRDGSYFDFDYWGQGTLVTVSS VH 2: QLQLKESGPGLVKPSETLSLTCTVSGGSISYYYWSWIRQPPGMGLEWIGNIYYSGDTNYNPSLRSRVTISIDMSKNQFSLRLNSVTAADTAVYYCARYDMFKWNYEAFDVWGQGTMVTVSS VL: not shown | 12.1 nM | 0.00252 s⁻¹ | 209000 M⁻¹ s⁻¹ | 11.5 nM | 0.00139 s⁻¹ | 121000 M⁻¹ s⁻¹ | 14.8 nM | 0.00173 s⁻¹ | 117000 M⁻¹ s⁻¹ | 11.2 nM | 0.0025 s⁻¹ | 224000 M⁻¹ s⁻¹ | 36.2 nM | 0.00426 s⁻¹ | 118000 M⁻¹ s⁻¹ |
| 3C4-6F7 (bispecific antibody, human IgG1, kappa, Knobs-into-holes IgG1 with common light chain; also called anti-PTK7/TROP2 bispecific antibody 3C4-6F7) heavy 1: not shown heavy 2: EVQLVQSGPGLVKPSETLSLTCTVSGGSIDSGYYYWGWIRQPPGKGLEWIGSIYYIGTTYYIPSLKSRVTISVDTSKNRFSLKLTSVTAADTAVYYCARQPITVAGHDAFDIWGQGTMVTVSSASTKGPSVFPLAPSSKSTSGGTAALGCLVKDYFPEPVTVSWNSGALTSGVHTFPAVLQSSGLYSLSSVVTVPSSSLGTQTYICNVNHKPSNTKVDKKVEPKSCDKTHTCPPCPAPELLGGPSVFLFPPKPKDTLMISRTPEVTCVVVDVSHEDPEVKFNWYVDGVEVHNAKTKPREEQYNSTYRVVSVLTVLHQDWLNGKEYKCKVSNKALPAPIEKTISKAKGQPREPQVCTLPPSREEMTKNQVSLSCAVKGFYPSDIAVEWESNGQPENNYKTTPPVLDSDGSFFLVSKLTVDKSRWQQGNVFSCSVMHEALHNHYTQKSLSLSPGK light: not shown | 5.94 nM | 0.00179 s⁻¹ | 301000 M⁻¹ s⁻¹ | 13.2 nM | 0.00152 s⁻¹ | 115000 M⁻¹ s⁻¹ | 17.4 nM | 0.00216 s⁻¹ | 124000 M⁻¹ s⁻¹ | 10.6 nM | 0.00419 s⁻¹ | 394000 M⁻¹ s⁻¹ | 52.5 nM | 0.006 s⁻¹ | 114000 M⁻¹ s⁻¹ |

Now from value to binder:

| Kd [1] | koff [1] | kon [1] | Kd [2] | koff [2] | kon [2] | Kd [3] | koff [3] | kon [3] | Kd [4] | koff [4] | kon [4] | Kd [5] | koff [5] | kon [5] | Binder |
| --- | --- | --- | --- | --- | --- | --- | --- | --- | --- | --- | --- | --- | --- | --- | --- |
| 3.66 nM | 0.00119 s⁻¹ | 325000 M⁻¹ s⁻¹ | 3.14 nM | 0.000389 s⁻¹ | 124000 M⁻¹ s⁻¹ | 5.2 nM | 0.000623 s⁻¹ | 120000 M⁻¹ s⁻¹ | 3.23 nM | 0.00116 s⁻¹ | 360000 M⁻¹ s⁻¹ | 16.7 nM | 0.00164 s⁻¹ | 98300 M⁻¹ s⁻¹ | 3E6-18E9 (bispecific antibody, V domains shown, also called anti-PTK7/TROP2 bispecific antibody 3E6-18E9) VH 1: QVQLVESGAEVKKPGESLRISCRGSGYSFTSYWISWVRQMPGKGLEWMGRIDPSDSYTKYSPSFQGHVTISADKSISTAYLQWSSLKASDTAMYYCARRDGDYFDFDYWGQGTLVTVSS VH 2: QLQLQQSGPGLLKPSETLSLTCTVSGGSISSSYYFWGWIRQPPGKGLEWIGAIYYIGNTHYNPSLKSRVTISIDTSKNQFSLNLNSVTAADTAIYYCARYEDTWNWFDPWGQGTLVTVSS VL: not shown |
| 8.07 nM | 0.00284 s⁻¹ | 352000 M⁻¹ s⁻¹ | 2.67 nM | 0.000369 s⁻¹ | 138000 M⁻¹ s⁻¹ | 4.6 nM | 0.000522 s⁻¹ | 114000 M⁻¹ s⁻¹ | 351 nM | 0.0455 s⁻¹ | 130000 M⁻¹ s⁻¹ | 20.6 nM | 0.00197 s⁻¹ | 95500 M⁻¹ s⁻¹ | 3E6-6F7 (bispecific antibody, V domains shown, also called anti-PTK7/TROP2 bispecific antibody 3E6-6F7) VH 1: QVQLVESGAEVKKPGESLRISCRGSGYSFTSYWISWVRQMPGKGLEWMGRIDPSDSYTKYSPSFQGHVTISADKSISTAYLQWSSLKASDTAMYYCARRDGDYFDFDYWGQGTLVTVSS VH 2: EVQLVQSGPGLVKPSETLSLTCTVSGGSIDSGYYYWGWIRQPPGKGLEWIGSIYYIGTTYYIPSLKSRVTISVDTSKNRFSLKLTSVTAADTAVYYCARQPITVAGHDAFDIWGQGTMVTVSS VL: not shown |
| 13.9 nM | 0.00231 s⁻¹ | 166000 M⁻¹ s⁻¹ | 2.43 nM | 0.000329 s⁻¹ | 135000 M⁻¹ s⁻¹ | 4.98 nM | 0.000649 s⁻¹ | 130000 M⁻¹ s⁻¹ | 13.7 nM | 0.00244 s⁻¹ | 178000 M⁻¹ s⁻¹ | 16.4 nM | 0.00172 s⁻¹ | 105000 M⁻¹ s⁻¹ | 3E6-18F12 (bispecific antibody, V domains shown, also called anti-PTK7/TROP2 bispecific antibody 3E6-18F12) VH 1: QVQLVESGAEVKKPGESLRISCRGSGYSFTSYWISWVRQMPGKGLEWMGRIDPSDSYTKYSPSFQGHVTISADKSISTAYLQWSSLKASDTAMYYCARRDGDYFDFDYWGQGTLVTVSS VH 2: QLQLKESGPGLVKPSETLSLTCTVSGGSISYYYWSWIRQPPGMGLEWIGNIYYSGDTNYNPSLRSRVTISIDMSKNQFSLRLNSVTAADTAVYYCARYDMFKWNYEAFDVWGQGTMVTVSS VL: not shown |
